Test [1] has as its target CelTOS N-terminal truncation mutant (Gly51-Asp196) (Plasmodium vivax). Briefly: SEC.
Test [2] has as its target CelTOS double mutant Lys122Asp, Leu164Asp (Plasmodium vivax). Briefly: SEC. In general terms: SEC sorts molecules by how far they enter the pores of the column.
Test [3] concerns the target Disulfide-locked CelTOS dimer (Ser55Cys, Ala123Cys) (Plasmodium vivax). Briefly: cross-linking.

Broadly, the stoichiometry N is the number of molecules, sites or subunits per partner or assembly. For the substance “CelTOS N-terminal truncation mutant (Gly51-Asp196) (domain or fragment)”, the stoichiometry N in test [1] was 2.

Substance “CelTOS double mutant Lys122Asp, Leu164Asp (natural protein)” displayed a stoichiometry N in test [2] of 2.

In test [3], “Disulfide-locked CelTOS dimer (Ser55Cys, Ala123Cys) (natural protein)” had a precursor abundance of cross-linked species of 70% and a stoichiometry N of 2.
